Reference: EP4635976A1 (Medigene Immunotherapies GmbH, dated 2025)

What was measured:
Assay in all cases: cell-based or functional assay
[1] = molecular target: mismatched peptide #116 …
[2] = molecular target: mismatched peptide #24 …
[3] = molecular target: mismatched peptide #221 …
[4] = molecular target: mismatched peptide #236 …
[5] = molecular target: mismatched peptide #265 …
[6] = molecular target: mismatched peptide #79 …
[7] = molecular target: mismatched peptide #323 …
[8] = molecular target: mismatched peptide #243 …
[9] = molecular target: mismatched peptide #314 …
[10] = molecular target: mismatched peptide #247 …
[11] = molecular target: mismatched peptide #15 …
[12] = molecular target: mismatched peptide #9 …
[13] = molecular target: mismatched peptide #240 …
[14] = molecular target: mismatched peptide #8 …
[15] = molecular target: mismatched peptide #278 …
[16] = molecular target: mismatched peptide #244 …
[17] = molecular target: mismatched peptide #7 …
[18] = molecular target: mismatched peptide #239 …
[19] = molecular target: mismatched peptide #160 …
[20] = molecular target: mismatched peptide #13 …
[21] = molecular target: mismatched peptide #62 …
[22] = molecular target: mismatched peptide #324 …
[23] = molecular target: mismatched peptide #41 …
[24] = molecular target: mismatched peptide #76 …
[25] = molecular target: mismatched peptide #228 …
[26] = molecular target: mismatched peptide #257 …
[27] = molecular target: mismatched peptide #246 …
[28] = molecular target: mismatched peptide #31 …
[29] = molecular target: mismatched peptide #45 …

B1: NY-ESO specific TCR (T11.8-10-17), wild type (TCR)
TCR alpha: QKEVEQNSGPLSVPEGAIASLNCTYSDRGSQSFFWYRQYSGKSPELIMFIYSNGDKEDGRFTAQLNKASQYVSLLIRDSQPSDSATYLCAADDKIIFGKGTRLHILPNIQNPDPAVYQLRDSKSSDKSVCLFTDFDSQTNVSQSKDSDVYITDKTVLDMRSMDFKSNSAVAWSNKSDFACANAFNNSIIPEDTFFPSSDVPCDVKLVEKSFETDTNLNFQNLSVIGFRILLLKVAGFNLLMTLRLWSS
TCR beta: DAGVIQSPRHEVTEMGQEVTLRCKPISGHDYLFWYRQTMMRGLELLIYFNNNVPIDDSGMPEDRFSAKMPNASFSTLKIQPSEPRDSAVYFCASSRGGSGYTFGSGTRLTVVEDLNKVFPPEVAVFEPSKAEIAHTQKATLVCLATGFFPDHVELSWWVNGKEVHSGVSTDPQPLKEQPALNDSRYCLSSRLRVSATFWQNPRNHFRCQVQFYGLSENDEWTQDRAKPVTQIVSAEAWGRADCGITSASYHQGVLSATILYEILLGKATLYAVLVSALVLMAMVKRKDF
[1]
  IFN-γ release (IFNg-ELISA), donor MIT 045: 32.4 pg/mL
[2]
  IFN-γ release (IFNg-ELISA), donor MIT 045: 24.3 pg/mL
[3]
  IFN-γ release (IFNg-ELISA), donor MIT038: 789 pg/mL
  IFN-γ release (IFNg-ELISA), donor MIT 045: 101 pg/mL
[4]
  IFN-γ release (IFNg-ELISA), donor MIT038: 256 pg/mL
  IFN-γ release (IFNg-ELISA), donor MIT 045: 32.3 pg/mL
[5]
  IFN-γ release (IFNg-ELISA), donor MIT038: 366 pg/mL
  IFN-γ release (IFNg-ELISA), donor MIT 045: 43.2 pg/mL
[6]
  IFN-γ release (IFNg-ELISA), donor MIT038: 292 pg/mL
  IFN-γ release (IFNg-ELISA), donor MIT 045: 40.3 pg/mL
[7]
  IFN-γ release (IFNg-ELISA), donor MIT038: 3700 pg/mL
  IFN-γ release (IFNg-ELISA), donor MIT 045: 658 pg/mL
[8]
  IFN-γ release (IFNg-ELISA), donor MIT038: 380 pg/mL
  IFN-γ release (IFNg-ELISA), donor MIT 045: 47.2 pg/mL
[9]
  IFN-γ release (IFNg-ELISA), donor MIT 045: 26.7 pg/mL
[10]
  IFN-γ release (IFNg-ELISA), donor MIT038: 681 pg/mL
  IFN-γ release (IFNg-ELISA), donor MIT 045: 80.5 pg/mL
[11]
  IFN-γ release (IFNg-ELISA), donor MIT038: 282 pg/mL
  IFN-γ release (IFNg-ELISA), donor MIT 045: 47.1 pg/mL
[12]
  IFN-γ release (IFNg-ELISA), donor MIT 045: 26.5 pg/mL
[13]
  IFN-γ release (IFNg-ELISA), donor MIT038: 237 pg/mL
  IFN-γ release (IFNg-ELISA), donor MIT 045: 23.4 pg/mL
[14]
  IFN-γ release (IFNg-ELISA), donor MIT 045: 24.7 pg/mL
[15]
  IFN-γ release (IFNg-ELISA), donor MIT038: 464 pg/mL
  IFN-γ release (IFNg-ELISA), donor MIT 045: 50.8 pg/mL
[16]
  IFN-γ release (IFNg-ELISA), donor MIT038: 441 pg/mL
  IFN-γ release (IFNg-ELISA), donor MIT 045: 45.4 pg/mL
[17]
  IFN-γ release (IFNg-ELISA), donor MIT 045: 24 pg/mL
[18]
  IFN-γ release (IFNg-ELISA), donor MIT038: 229 pg/mL
  IFN-γ release (IFNg-ELISA), donor MIT 045: 32.1 pg/mL
[19]
  IFN-γ release (IFNg-ELISA), donor MIT038: 3620 pg/mL
  IFN-γ release (IFNg-ELISA), donor MIT 045: 1290 pg/mL
[20]
  IFN-γ release (IFNg-ELISA), donor MIT 045: 20.8 pg/mL
[21]
  IFN-γ release (IFNg-ELISA), donor MIT038: 819 pg/mL
  IFN-γ release (IFNg-ELISA), donor MIT 045: 88.3 pg/mL
[22]
  IFN-γ release (IFNg-ELISA), donor MIT038: 432 pg/mL
[23]
  IFN-γ release (IFNg-ELISA), donor MIT038: 298 pg/mL
  IFN-γ release (IFNg-ELISA), donor MIT 045: 55.6 pg/mL
[24]
  IFN-γ release (IFNg-ELISA), donor MIT038: 769 pg/mL
  IFN-γ release (IFNg-ELISA), donor MIT 045: 150 pg/mL
[25]
  IFN-γ release (IFNg-ELISA), donor MIT038: 234 pg/mL
  IFN-γ release (IFNg-ELISA), donor MIT 045: 35.4 pg/mL
[26]
  IFN-γ release (IFNg-ELISA), donor MIT038: 383 pg/mL
  IFN-γ release (IFNg-ELISA), donor MIT 045: 57.9 pg/mL
[27]
  IFN-γ release (IFNg-ELISA), donor MIT038: 321 pg/mL
  IFN-γ release (IFNg-ELISA), donor MIT 045: 40.9 pg/mL
[28]
  IFN-γ release (IFNg-ELISA), donor MIT038: 2130 pg/mL
  IFN-γ release (IFNg-ELISA), donor MIT 045: 887 pg/mL
[29]
  IFN-γ release (IFNg-ELISA), donor MIT038: 1500 pg/mL
  IFN-γ release (IFNg-ELISA), donor MIT 045: 177 pg/mL
